Assay results as given in patent US12016910B2, “Antigenic peptides for prevention and treatment of cancer” (ENTEROME S.A., priority 2018, dated 2024).

Legend:
[1] = tested on: T-cells (IFN-secreting splenocytes); experiment: Immunogenicity and cross-reactivity, IFN ELISpot on splenocytes of immunized HHD DR3 mice; format: in vivo; conditions: for immunogenicity: immune response after challenge with the vaccination peptide or the human corresponding peptide (IFN ELISpot): 100 μg peptide + 150 μg helper peptide (DR3) + IFA s.c. days 0 and 14, splenocytes day 21; for immune response against the corresponding human peptide (cross-reactivity): same immunisation
Protocol: Concanavalin A (ConA) was used as a positive control.
The antigenic peptide of the invention BIRC5-B1 (SEQ ID NO: 32) and the corresponding human peptide BIRC5-H (SEQ ID NO: 593) were tested in distinct groups of male and female HHD DR3 mice expressing human HLA-A2 and HLA-DR3 MHC and lacking the murine H-2 class I and class II MHCs. Groups of 5 mice (male and female) were subcutaneously injected on days 0 and 14 with 100 μg of BIRC5-B1 or BIRC5-H, 150 μg of helper peptide (DR3) and IFA. On day 21, the mice were euthanized and splenocytes were prepared and stimulated in vitro with BIRC5-B1 or the human peptide BIRC5-H to assess their capacity to secrete IFN—as assessed by ELISpot. ConA was used as a positive control.
The antigenic peptide of the invention FOXM1-B2 (SEQ ID NO: 220) and the corresponding human peptide FOXM1-H2 (SEQ ID NO: 674) were tested in distinct groups of male and female HHD DR3 mice expressing human HLA-A2 and HLA-DR3 MHC and lacking the murine H-2 class I and class II MHCs. Groups of 5 mice (male and female) were subcutaneously injected on days 0 and 14 with 100 μg of FOXM1-B2 or FOXM1-H2, 150 μg of helper peptide (DR3) and IFA. On day 21, the mice were euthanized and splenocytes were prepared and stimulated in vitro with FOXM1-B2 or the human corresponding peptide FOXM1-H2 to assess their capacity to secrete IFN—as assessed by ELISpot. ConA was used as a positive control

[2] = target: T1, HLA-A*0201 (Homo sapiens, UniProt P04439, D140Y/D185E/D98H/E176V/E277Q/G131W/G231S/I119V/I121R/I166T/I218V/L300P/L318F/N151K/N90K/P208A/P217A/Q86G/Q94H/R138H/R169H/T345S); experiment: Affinity of the peptide to T2 cell line: HLA-A2 labelling by FACS, relative to HIV pol 589-597; format: binding; conditions: for binding affinity to HLA-A*0201 compared with the other peptides tested (in words): Examples 2, 7, 8, 9; for binding to HLA-A*0201 as % of maximum HIV pol 589-597 binding activity: Example 8
T1 construct: the human tumoral cell T2 which expresses the HLA-A*0201 molecule; endogenous in cells; host or cells: T2 cells (human, TAP1/2 negative)
Source text: The experimental protocol is similar to the one that was validated for peptides presented by the HLA-A*0201 (Tourdot et al., A general strategy to enhance immunogenicity of low-affinity HLA-A2.1-associated peptides: implication in the identification of cryptic tumor epitopes. Eur J Immunol. 2000 December; 30(12):3411-21). Affinity measurement of the peptides is achieved with the human tumoral cell T2 which expresses the HLA-A*0201 molecule, but which is TAP1/2 negative and incapable of presenting endogenous peptides.
T2 cells (2.10^5 cells per well) are incubated with decreasing concentrations of peptides from 100 μM to 1.5625 μM in a AIMV medium supplemented with 100 ng/μl of human β2m at 37° C. for 16 hours. Cells are then washed two times and marked with the anti-HLA-A2 antibody coupled to PE (clone BB7.2, BD Pharmagen).
The analysis is achieved by FACS (Guava Easy Cyte).
A2. Solubilisation of Peptides
Each peptide is solubilized by taking into account the amino acid composition. […] Other peptides are resuspended in water or PBS pH7.4.
The experimental protocol, materials and methods correspond to those outlined in Example 2, with the only difference that the above mentioned (poly)peptides were used.

[3] = tested on: T-cells (IFN-secreting splenocytes); experiment: Immunogenicity and cross-reactivity, confirmation in HHD DR1 mice; format: in vivo; conditions: HHD DR3 and HHD DR1 mice, summary of Examples 4 to 6
[4] = tested on: T cell responses (IFNγ-producing splenocytes); experiment: ELISPOT-IFNγ assay on splenocytes of vaccinated HLA-A2 humanized mice; format: in vivo, HLA-A2 (CB6F1-Tg(HLA-A*0201/H2-Kb)A*0201) mice; conditions: 100 μg vacc-pAg + 150 μg T13L + IFA s.c. d0 and d14; splenocytes d21 restimulated with vacc-pAg 10 μM
Source text: Briefly, HLA-A2 humanized mice (HLA-A2 (CB6F1-Tg(HLA-A*0201/H2-Kb)A*0201) were assigned randomly (based on mouse sex and age) to experimental groups, wherein each group was immunized with a specific vaccination peptide (vacc-pAg) combined to a common helper peptide (h-pAg T13L; sequence: […]; SEQ ID NO: 860; Bhasin M, Singh H, Raghava GP (2003) MHCBN: a comprehensive database of MHC binding and non-binding peptides. Bioinformatics 19: 665-666) (as outlined in Table 5 below). The vacc-pAg were compared in couples (group 1 vs. group 2, group 1 vs. group 3; group 1 vs. group 4; group 5 vs. group 6; group 7 vs. group 8; group 9 vs. group 10). Thereby, both native and optimized versions of a single peptide were compared in each wave.
The peptides were provided as follows: • vacc-pAg: BIRC5-H, BIRC5-B1, BIRC5-B2, BIRC5-B3, FOXM1-H2, FOXM1-B2, EZH2-H2, EZH2-B2, 1L13RA2-H and IL13RA2-B; all produced and provided at a 4 mg/ml (4 mM) concentration; • h-pAg: T13L; Eurogentec batch 1713334 re-suspended in pure distilled water at a 10 mg/mL concentration
The animals were immunized on day 0 (d0) with a prime injection, and on d14 with a boost injection. Each mouse was injected s.c. at tail base with 100 μL of an oil-based emulsion that contained: • 100 μg of vacc-pAg (25 μL of 4 mg/mL stock per mouse); • 150 μg of h-pAg (15 μL of 10 mg/mL stock per mouse); • 10 μL of PBS to reach a total volume of 50 μL (per mouse); • Incomplete Freund's Adjuvant (IFA) added at 1:1 (v:v) ratio (50 μL per mouse).
A separate emulsion was prepared for each vacc-pAg, as follows: IFA reagent was added to the vacc-pAg/h-pAg/PBS mixture in a 15 mL tube and mixed on vortex for repeated cycles of 1 min until forming a thick emulsion.
Seven days after the boost injection (i.e. on d21), the animals were euthanized and the spleen was harvested. Splenocytes were prepared by mechanical disruption of the organ followed by 70 μm-filtering and Ficoll density gradient purification.
The splenocytes were immediately used in an ELISPOT-IFNγ assay (Table 6). Experimental conditions were repeated in triplicates, using 2*10^5 total splenocytes per well, and were cultured in presence of vacc-pAg (10 μM), lonomycin (0.1 μM) plus PMA (1 μM) or medium-only to assess for their capacity to secrete IFNγ. The commercial ELISPOT-IFNγ kit (Diaclone Kit Mujrine IFNγ ELISpot) was used following the manufacturer's instructions, and the assay was performed after about 19 h of incubation.
Spots were counted on a CTL ELISpot reader. Data plotting and statistical analysis were performed with the Prism-5 software (GraphPad Software Inc.).
The data were then normalized as a number of specific spots (the average counts obtained in the ‘medium only’ condition being subtracted) per 50*10^3 total T cells.
The individual average values (obtained from the triplicates) were next used to plot the group average values. As the functional capacity of T cells might vary from individual to individual, the data were also expressed as the percentage of the ionomycin plus PMA response per individual (see FIG. 8).

LMDLSTTPL (listed as Homo sapiens) [FOXM1-H2, reference compound]
immunogenicity: immune response after challenge with the vaccination peptide or the human corresponding peptide (IFN ELISpot) [1]: does not induce immune response | Concentration of peptide that induces 20% of HLA-A2 expression ([2]; Example 2, Table 4): 12.6 µM

FLPFGFILPV [IL13RA2-L]
immunogenicity: immune response after challenge with the vaccination peptide or the human corresponding peptide (IFN ELISpot) [1]: strongly immunogenic | immune response against the corresponding human peptide (cross-reactivity) [1]: able to drive an effective immune response against the corresponding human peptide | Concentration of peptide that induces 20% of HLA-A2 expression ([2]; Example 2, Table 4): 3.2 µM | Concentration of peptide that induces 20% of HLA-A2 expression ([2]; Example 8, Table 8): 3.2 µM | binding affinity to HLA-A*0201 compared with the other peptides tested (in words) [2]: considerably higher binding affinity | binding to HLA-A*0201 as % of maximum HIV pol 589-597 binding activity ([2]; at 6.25 μM): 43% | binding to HLA-A*0201 as % of maximum HIV pol 589-597 binding activity ([2]; at 25 μM): 96% | binding to HLA-A*0201 as % of maximum HIV pol 589-597 binding activity ([2]; at 100 μM): 69% | immune responses induced [3]: induced strong immune responses

LMDLSTTEV [FOXM1-B2]
immunogenicity: immune response after challenge with the vaccination peptide or the human corresponding peptide (IFN ELISpot) [1]: strongly immunogenic | immune response against the corresponding human peptide (cross-reactivity) [1]: able to drive an effective immune response against human corresponding peptide | Concentration of peptide that induces 20% of HLA-A2 expression ([2]; Example 2, Table 4): 6.7 µM | immune responses induced [3]: induced strong immune responses | T cell responses in the ELISPOT-IFNγ assay compared to the respective human reference epitope [4]: improved T cell responses

FMVEDETVL (listed as Homo sapiens) [EZH2-H, reference compound]
Concentration of peptide that induces 20% of HLA-A2 expression ([2]; Example 2, Table 4): 13.3 µM

FLDSLGFST (listed as Homo sapiens) [TYMS H2, reference compound]
Concentration of peptide that induces 20% of HLA-A2 expression ([2]; Example 2, Table 4): 9.5 µM

LMLGEFLKL [2M, reference compound]
Concentration of peptide that induces 20% of HLA-A2 expression ([2]; Example 9, Table 9): 2.87 µM

GLLGEFLQI [BIRC5-B3]
Concentration of peptide that induces 20% of HLA-A2 expression ([2]; Example 2, Table 4): 22.9 µM | T cell responses in the ELISPOT-IFNγ assay compared to the respective human reference epitope [4]: improved T cell responses

YLLSAALTI [CHI3L1 B3]
Concentration of peptide that induces 20% of HLA-A2 expression ([2]; Example 2, Table 4): 8.6 µM

LTLGEFLKL (listed as Homo sapiens) [BIRC5-H, reference compound]
immunogenicity: immune response after challenge with the vaccination peptide or the human corresponding peptide (IFN ELISpot) [1]: does not induce any immune response | Concentration of peptide that induces 20% of HLA-A2 expression ([2]; Example 2, Table 4): 53.0 µM | Concentration of peptide that induces 20% of HLA-A2 expression ([2]; Example 9, Table 9): 95.9 µM

FMLGEFLKL [BIRC5-B1]
immunogenicity: immune response after challenge with the vaccination peptide or the human corresponding peptide (IFN ELISpot) [1]: strongly immunogenic | immune response against the corresponding human peptide (cross-reactivity) [1]: able to drive an effective immune response against human corresponding peptide | Concentration of peptide that induces 20% of HLA-A2 expression ([2]; Example 2, Table 4): 2.7 µM | Concentration of peptide that induces 20% of HLA-A2 expression ([2]; Example 9, Table 9): 1.24 µM | binding affinity to HLA-A*0201 compared with the other peptides tested (in words) [2]: considerably higher in vitro binding affinity | immune responses induced [3]: induced strong immune responses | T cell responses in the ELISPOT-IFNγ assay compared to the respective human reference epitope [4]: improved T cell responses

WLPFGFILI (listed as Homo sapiens) [IL13RA2-H, reference compound]
immunogenicity: immune response after challenge with the vaccination peptide or the human corresponding peptide (IFN ELISpot) [1]: does not induce an immune response

SMEELLWFV [TYMS B]
Concentration of peptide that induces 20% of HLA-A2 expression ([2]; Example 2, Table 4): 1.1 µM
